In article PMC8757444 (ACS Omega, 2021):

Biological target: the molecule itself
Experiment: dynamic light scattering

B1: Encapsulin from Thermotoga maritima (natural protein)
chain: MEFLKRSFAPLTEKQWQEIDNRAREIFKTQLYGRKFVDVEGPYGWEYAAHPLGEVEVLSDENEVVKWGLRKSLPLIELRATFTLDLWELDNLERGKPNVDLSSLEETVRKVAEFEDEVIFRGCEKSGVKGLLSFEERKIECGSTPKDLLEAIVRALSIFSKDGIEGPYTLVINTDRWINFLKEEAGHYPLEKRVEECLRGGKIITTPRIEDALVVSERGGDFKLILGQDLSIGYEDREKDAVRLFITETFTFQVVNPEALILLKF
binding result: binds
